This note sets out measurements from US20220305135A1 (UNIVERSITY OF CHICAGO, published 2022).

In experiment [1] the target is T1, extra domain A (EDA) of fibronectin.
T1 chain: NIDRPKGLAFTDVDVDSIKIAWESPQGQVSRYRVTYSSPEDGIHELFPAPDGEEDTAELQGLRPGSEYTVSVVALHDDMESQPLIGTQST
Briefly: ELISA on plates coated with 10 µg/mL EDA, detection with HRP anti-human IgG, absorbance at 450 nm [panel C].

Experiment [2] has the same target. Briefly: ELISA, EDA coated on plate, Fab titrated, anti-human IgG-HRP detection; apparent Kd by one-site nonlinear regression.

B1: Human anti-EDA Fab (Fab, V domains shown)
VH: EVQLLESGGGLVQPGGSLRLSCAASGFTFSVMKMSWVRQAPGKGLEWVSAISGSGGSTYYADSVKGRFTISRDNSKNTLYLQMNSLRAEDTAVYYCAKSTHLYLFDYWGQGTLVTVSS
VL: EIVLTQSPGTLSLSPGERATLSCRASQSVSNAFLAWYQQKPGQAPRLLIYGASSRATGIPDRFSGSGSGTDFTLTISRLEPEDFAVYYCQQMRGRPPTFGQGTKVEIKR
notes: Made recombinantly in HEK-293F cells
In the case of B1, the “EC50 (read off the curve)” value in experiment [1] was around 80 nM. Moreover, the Kd in experiment [2] came to 50.9 nM.
